In patent US6559124B1, “Use of prosaposin and peptides obtained therefrom for treatment of neural degeneration” (Myelos Corporation, priority 1993, dated 2003):
Values joined by “and” are separate entries in the source; they are usually repeats but may differ in a detail not shown here. Identical values can stand only once. Where no end group is shown, it is not given here.

How the values were obtained:
[1] = test system: NS20Y neuroblastoma cells; assay: Neurite outgrowth of NS20Y neuroblastoma cells; assay type: cell-based; conditions: for % Neurites after 24 hours: peptide added at 5 μg/ml, None = 18%
Description: NS20Y neuroblastoma cells were grown in Dulbecco's Modified Eagle Medium (DMEM) containing 10% fetal calf serum (FCS) and 1 mM sodium pyruvate. Cells were removed with trypsin and plated in 30 mm petri dishes onto glass coverslips. After 20-24 hours the medium was replaced with DMEM containing 0.5% fetal calf serum plus effector proteins. Cells were cultured for another 24 hours, washed with phosphate buffered saline (PBS) and fixed with Bouin's solution (saturated aqueous picric acid/formalin/acetic acid 15:5:1) for 30 minutes. Fixative was removed with PBS and neurite outgrowth was scored under a phase contrast microscope. […] At least 200 cells were scored in different portions of each dish to determine the percentage of neurite bearing cells and assays were performed in duplicate.

NS20Y proteins = assay: Incorporation of 32P into NS20Y proteins; assay type: cell-based; conditions: NS20Y cells; effector proteins 0.5-1.0 μg/ml, 10-15 minutes; versus controls or saposins A, B or D
Description: NS20Y cells were incubated in phosphate-free Hanks' balanced salt solution containing 2.5 μg/ml actinomycin D and 80-100 μCi/ml carrier-free [^32P]-orthophosphate (New England Nuclear) and effector proteins (0.5-1.0 μg/ml) and incubated for 10-15 minutes at room temperature. Cells were solubilized in SDS-PAGE sample buffer, analyzed by SDS-PAGE and autoradiographed.

[2] = parameters: species or system rats; conditions: rat, in vivo
Description: An 18-mer peptide consisting of amino acids 12-29 of saposin C with a tyrosine substituted for valine at position 12 was chemically synthesized on an Applied Biosystems Model 430 peptide synthesizer. The peptide was then radioiodinated by the lactoperoxidase method and 20×10^6 cpm were injected into the auricles of rats. The animals were sacrificed after one hour and 24 hours and the hearts were perfused with isotonic saline in order to remove the blood from the brain. The brain was then counted in a gamma counter in order to determine the percentage of peptide uptake. In addition, in the 24 hour experiment the brain was homogenized and separated into a capillary rich fraction (pellet) and a parenchymal brain fraction (supernatant) after dextran centrifugation (Triguero et al., (1990) J. Neurochem., 54: 1882-1888). This method allows for the discrimination between radiolabelled peptide within blood vessels and that within the brain. In the 24 hour experiment, 0.017% of the injected peptide was detected in whole brain, 75% of the label was in the parenchymal fraction and 25% was in the capillary fraction. At 1 hour 0.03% of the injected dose was present in whole brain.

[3] = test system: mouse cerebellar explants; assay: Neurite outgrowth and myelination in newborn mouse cerebellar explants; assay type: cell-based; conditions: prosaposin 5 μg/ml, saposins 10 μg/ml; for cells with long projections at the periphery of the explant: day 15
Description: Newborn mouse cerebellar explants were prepared according to Satomi (Zool. Sci. 9, 127-137 (1992)). Neurite outgrowth and myelination were observed over 22 days in culture, during the period when the newborn mouse cerebellum normally undergoes neuronal differentiation and myelination begins. Prosaposin (5 μg/ml) and saposins A, B and C (10 μg/ml) were added on the second day after preparation of the explants (three control and three treated explants) and outgrowth of neurites and myelination were assessed under a bright field microscope with a video camera.

[4] = test system: PC12M pheochromocytoma cells; assay: Neurite outgrowth from NGF-responsive PC12M cells; assay type: cell-based; conditions: high concentrations (2 mg/ml)
Source text: Since nerve growth factor (NGF) acts on a variety of cell types, we wanted to determine whether it was involved in prosaposin-mediated outgrowth in neuroblastoma cells.

Molecule: 1-40: amino terminal synthetic peptide, residues 1-40 of saposin C (SDVYCEVCEFLVKEVTKLIDNNKTEKEILDAFDKMCSKLP; Saposin-C; UniProt P07602 311-350, looked up, fragment)
- neuritogenic activity (in words) [1]: active
- % Neurites after 24 hours [1]: 42%

Molecule: 1-27: synthetic peptide from the human saposin C domain, residues 1-27 (SDVYCEVCEFLVKEVTKLIDNNKTEKE; Saposin-C; UniProt P07602 311-337, looked up, fragment)
- % Neurites after 24 hours [1]: 46%

Molecule: 21-48: synthetic peptide from the human saposin C domain, residues 21-48 (NNKTEKEILDAFDKMCSKLPKSLSEECQ; Saposin-C; UniProt P07602 331-358, looked up, fragment)
- % Neurites after 24 hours [1]: 18%

Molecule: NGF: nerve growth factor, a neurotrophin [reference compound]
- neuritogenic activity (in words) [1]: no effect on neurite outgrowth
- augmentation of the prosaposin neurite outgrowth response ([1]; 5 μg/ml NGF (FIG. 1b)): did not augment the prosaposin response

Molecule: CEFLVKEVTKLIDNNKTEKEIL [8-29]
- phosphorylation of proteins of 148, 100, 80, 68, 50, 38 and 34 kDa (in words) (NS20Y proteins): stimulate phosphorylation
- neuritogenic activity (in words) [1]: neuritogenic activity
- extent of neurite outgrowth compared with prosaposin or saposin C ([1]; FIG. 1a, higher concentrations required for activity): greater than with prosaposin or saposin C
- % Neurites after 24 hours [1]: 56%

Molecule: iodinated 18-mer: amino acids 12-29 of saposin C with tyrosine substituted for valine at position 12 (SEQ ID NO: 5), radioiodinated (YKEVTKLIDNNKTEKEIL; also: radioiodinated)
- crossing of the blood brain barrier (in words) [2]: crosses the blood brain barrier
- injected peptide detected in whole brain [2]: 0.017%
- label in the capillary fraction of brain [2]: 25%
- label in the parenchymal fraction of brain [2]: 75%
- neuritogenic activity (in words) [1]: neuritogenic activity

Molecule: 13-34: synthetic peptide from the human saposin C domain, residues 13-34 (KEVTKLIDNNKTEKEILDAFDK; Saposin-C; UniProt P07602 323-344, looked up, fragment)
- % Neurites after 24 hours [1]: 50%

Molecule: 41-82: carboxy terminal synthetic peptide, residues 41-82 of saposin C (KSLSEECQEVVDTYGSSILSILLEEVSPELVCSMLHLCSGTR; Saposin-C; UniProt P07602 351-392, looked up, fragment)
- neuritogenic activity (in words) [1]: inactive
- % Neurites after 24 hours [1]: 17%

B1: Saposin A: one of four saposins generated from prosaposin; inactive in neurite outgrowth (protein, UniProt P07602 60-142, looked up)
Saposin-A: SLPCDICKDVVTAAGDMLKDNATEEEILVYLEKTCDWLPKPNMSASCKEIVDSYLPVILDIIKGEMSRPGEVCSALNLCESLQ
modifications: Saposin-A
- cells with long projections at the periphery of the explant [3]: less prominent
- neuritogenic activity (in words) [1]: inactive
- % Neurites after 24 hours [1]: 20%

B2: Prosaposin: 70 kilodalton glycoprotein, precursor of saposins A, B, C and D; human sequence SEQ ID NO:2 (protein)
chain: MYALFLLASLLGAALAGPVLGLKECTRGSAVWCQNVKTASDCGAVKHCLQTVWNKPTVKSLPCDICKDVVTAAGDMLKDNATEEEILVYLEKTCDWLPKPNMSASCKEIVDSYLPVILDIIKGEMSRPGEVCSALNLCESLQKHLAELNHQKQLESNKIPELDMTEVVAPFMANIPLLLYPQDGPRSKPQPKDGDVCQDCIQMVTDIQTAVRTNSTFVQALVEHVKEECDRLGPGMADICKNYISQYSEIAIQMMMHMQPKEICALVGFCDEVKEMPMQTLVPAKVASKNVIPALDLVDPIKKHEVPAKSDVYCEVCEFLVKEVTKLIDNNKTEKEILDAFDKMCSKLPKSLSEECQEVVDTYGSSILSILLEEVSPELVCSMLHLCSGTRLPALTVHVTQPKDGGFCEVCKKLVGTLDRNLEKNSTKQEILAALEKGCSFLPDPYQKQCDQFVAEYEPVLIEILVEVMDPSFVCLKIGACPSAHKPLLGTEKCIWGPSYWCQNTETAAQCNAVEHCKRHVWN
- stimulation of neurite outgrowth from PC12M cells [4]: failed to stimulate neurite outgrowth
- appearance of explant cultures on the eighth day ([3]; day 8): thinner and more spread out than control cultures
- cells with long projections at the periphery of the explant [3]: many cells with long projections
- phosphorylation of proteins of 148, 100, 80, 68, 50, 38 and 34 kDa (in words) (NS20Y proteins): stimulate phosphorylation
- neuritogenic activity (in words) [1]: promoted reversible neurite outgrowth
- lowest concentration for activity (neurite outgrowth) ([1]; dose-response curve FIG. 1a): 1.4×10^−11 M and 10 ng/ml
- time at which retraction of neurite outgrowth was complete after removal ([1]; prosaposin removed): 36 h

B3: saposin B: one of four saposins generated from prosaposin (protein, UniProt P07602 195-273, looked up)
Saposin-B: GDVCQDCIQMVTDIQTAVRTNSTFVQALVEHVKEECDRLGPGMADICKNYISQYSEIAIQMMMHMQPKEICALVGFCDE
modifications: Saposin-B
notes: one of four saposins generated from prosaposin
- cells with long projections at the periphery of the explant [3]: less prominent
